Here are results for one molecule from US10344330B2, “Glatiramer acetate response biomarker mRNA potency assay” (Mylan Inc., priority 2013, dated 2019).

The test system of assay [1] is IL-10 secreted by LN cells. Nature of the assay: IL-10 secretion by GA-stimulated LN cells, MSD 9-plex ELISA (Example II). It is filed as cell-based, mouse. Conditions: 21 hr. The protocol: Animals at 8 weeks of age were immunized by injection into four footpads using a 1 mL syringe with a 27-G, 1⁄2-inch needle. […] Ten days post-immunization, immunized animals were sacrificed via cervical dislocation. […] The LN cells were isolated by pressing the LN with the plunger end of a sterile syringe. […] Trypan blue exclusion method was used to determine the cell density of viable cells in the suspension. […] Cat. […] LN cells were plated into a 24-well tissue culture plate for drug stimulation. […] Cell debris was removed by centrifugation at ca. 200×g for 10 minutes at 4° C. Cytokines secreted by treated cells were determined on the day of collection by ELISA using mouse TH 1/TH 2 9-Plex Tissue Culture Kit (Meso Scale Discovery; Cat No. […]-2, Lot #: K0032839) which detects Th1 cytokines (IFN-γ, IL-2, IL-12, IL-1β, TNF-α, CXCL1) and Th2 cytokines (IL-4, IL-5 and IL-10). For IFN-γ, culture media also were assayed at 45 hours using mouse IFN-γ Tissue Culture Kit (Meso Scale Discovery; Cat No. […] For the positive control, 0.5 mL of LN cells (5×10^6 cells/well) were treated with 0.5 mL of ConA (5 μg/mL). For the negative control, 0.5 mL of LN cells (5×10^6 cells/well) were treated with 0.5 mL of MBP (20 μg/mL). The LN cells with mock stimulation (enriched DCCM1 medium) were used to monitor the background level of a cytokine. For the cytokine assays, calibration standards or samples were incubated in the MULTI-SPOT or the SINGLE-SPOT plate and each cytokine bound to its corresponding capture antibody. All test samples were run in duplicate. The amount of each cytokine on its distinct spot was quantified using a cytokine-specific detection antibody labeled with MSD SULFO-TAGTM reagent. Electrochemiluminescent signals from immobilized SULFO-TAGTM-labeled complexes on each spot from each well were captured by the MSD SECTOR Imager 6000, which produces a signal directly proportional to the amount of captured cytokine in a test sample. The levels of cytokines in test samples were derived by interpolation from calibration curves with calibration standards of known concentrations using reagents provided with the MSD kits. Kits were used according to the manufacturer's protocols. […] Data are expressed as a response ratio of cytokine concentration in treated cell medium to control DCCM1 medium.
On the technique in general: An ELISA detects its analyte on a solid surface through an enzyme-linked reagent.

Assay [2] has as its system mIL-2 mRNA in primary LN cells. Nature of the assay: mIL-2 mRNA by real-time PCR in ex vivo stimulated LN cells of immunized (SJL/J×BALB/C)F1 mice (Example I). In kind it is cell-based, mouse. The protocol:
For each of the three experiments summarized in Table 1, female (SJL/J×BALB/C) F1 hybrid (Jackson Laboratory) mice were immunized by footpad injection with either 250 μg GMA (Mylan Pharmaceuticals, Inc.) and CFA (Sigma Aldrich), or Mannitol and CFA (as a negative control). The GA solution was diluted to 5 mg/mL with Dulbecco's Phosphate-buffered saline. A dose solution was then prepared by mixing the diluted GA solution (5 mg/mL) and CFA (1:1) until well-emulsified. Each mouse received a total injection volume of 0.1 mL (250 μg GA). Animals were immunized on Day 0. Immunized animals were sacrificed via cervical dislocation on Day 10 following immunization. Lymph nodes in the axillary and popliteal regions were removed aseptically in a purifier clean bench, and transferred into a sterile petri dish containing about 5 mL of sterile RPMI 1640 medium. The LN were washed 3 times with −5 mL of RPMI medium, and the LN cells isolated by pressing the LN with a syringe plunger. The cell suspension was transferred to a sterile 50 mL conical tube, washed in about 40 mL of RPMI medium by centrifuging at about 200×g for 10 minutes at about 4° C., and re-suspended in RPMI 1640 medium for cell counting. The cell suspension was centrifuged at about 200×g for 10 minutes at about 4° C. and re-suspended in ice cold enriched DCCM-1 medium. The LN cells (2.5×10^6 cells/cm^2) were plated in the wells of a 48-well tissue culture plate and stimulated with GA or controls.
After incubation at about 37° C. in a humidified CO2 incubator for the indicated time, total RNA was isolated from the treated cells using the RNeasy Mini Kit (Qiagen, Cat. #74104). Cells were lysed in RNA lysis buffer, transferred to Qiagen spin columns, washed, and the RNA eluted with DEPC-treated water from the column. cDNA was synthesized from each RNA sample using the High Capacity cDNA Reverse Transcription Kit (Applied Biosystems, Cat. #4368814). The PCR reactions were carried out using TaqMan Universal PCR Master Mix (Applied Biosystems, Cat. #4304437) and specific primers/probe for the target cytokine and reference internal controls. Primers/probes for mouse cytokines IL-2 (Cat. #4331182; ID Mm00434256_m1), IL-4 (Cat. #4331182; ID Mm00445259_m1), IL-5 (Cat. #4331182; ID Mm00439646_m1), IFN-γ (Cat. #4331182; ID Mm01168134_m1), IL-10 (ID Mm00439614_m1), and TNF-α (Mm00443260_g1) were obtained from Life Technologies. Expression of cytokine mRNA was quantitatively analyzed using a Real-Time PCR system (7500, Applied Biosystems).
(DCCM1 from Beit Haemek Ltd.; Cat. No. 05 010 1A). There was no MBP treatment for the 2-hour groups. (MBP from Bachem; Cat No. H-1964.0001) For each evaluation time DCCM1 was studied and compared, i.e. 2 hours represents 2 hours with DCCM1, 4 hours=4 hours, etc., and served as representative control for each timepoint.
For Experiment 3, a 96-well plate format was used, and RNA isolation was carried out using an SV 96 Total RNA Isolation System (Promega). Immunization of Groups 3A and 4A are described in Table 1. […] Y-axis: linear mRNA fold-changes of mIL-2. X-axis: log Cop and GA (Mylan GMA) concentration values. The best fit for the data set was performed using the logarithmic model.
Group 1B animals were female (SJL/J×BALB/C) F1 hybrid (Jackson Laboratory) mice immunized by footpad injection with either 250 μg GA and CFA, or Mannitol and CFA (as a negative control). A dose solution was prepared by mixing a diluted GA solution (5 mg/mL) and CFA (1:1).

B1: MBP: myelin basic protein, a negative control (protein, UniProt P02686 1-304, looked up)
Myelin basic protein: MGNHAGKRELNAEKASTNSETNRGESEKKRNLGELSRTTSEDNEVFGEADANQNNGTSSQDTAVTDSKRTADPKNAWQDAHPADPGSRPHLIRLFSRDAPGREDNTFKDRPSESDELQTIQEDSAATSESLDVMASQKRPSQRHGSKYLATASTMDHARHGFLPRHRDTGILDSIGRFFGGDRGAPKRGSGKDSHHPARTAHYGSLPQKSHGRTQDENPVVHFFKNIVTPRTPPPSQGKGRGLSLSRFSWGAEGQRPGFGYGGRASDYKSAHKGFKGVDAQGTLSKIFKLGGRDSRSGSPMARR
For the molecule B1, the “IL-10 secretion response ratio (treated cell medium to control DCCM1 medium)” value in assay [1] (BALB/cByJ, immunized GA Intraplantar) is given as 1.10; in assay [1] (BALB/cByJ, immunized GA Lower Limb), 1.12; in assay [1] (BALB/cByJ, immunized Mannitol Intraplantar), 1.07; in assay [1] (C57BL10J, immunized GA Intraplantar), 1.04; in assay [1] (C57BL10J, immunized GA Lower Limb), 1.00; in assay [1] (C57BL10J, immunized Mannitol Intraplantar), 1.08. The “IL-10 secretion response ratio (treated cell medium to control DCCM1 medium)” value in assay [1] (CD-1, immunized GA Intraplantar) is 1.39; in assay [1] (CD-1, immunized GA Lower Limb), 1.41; in assay [1] (CD-1, immunized Mannitol Intraplantar), 1.38. In addition, the “mIL-2 mRNA Level” value in assay [2] (Experiment 1, GA-immunized (SJL/J×BALB/C)F1, 4 hour post stimulation, GA 10, MBP 10, ConA 2.5 μg/mL) is on record as 1.0 fold change vs control; in assay [2] (Experiment 1, GA-immunized (SJL/J×BALB/C)F1, 6 hour post stimulation, GA 10, MBP 10, ConA 2.5 μg/mL), 0.3 fold change vs control; in assay [2] (Experiment 1, GA-immunized (SJL/J×BALB/C)F1, 24 hour post stimulation, GA 10, MBP 10, ConA 2.5 μg/mL) it was 0.6 fold change vs control; in assay [2] (Experiment 3, Group 3A (GA + CFA), stimulation 10 μg/mL, 6 hours), 0.9 fold change vs control; in assay [2] (Experiment 3, Group 4A controls, *Animals not immunized, MBP 10, ConA 2.5 μg/mL, 6 hours) it was 1.5 fold change vs control; in assay [2] (Group 1B (GA + CFA), 4 hours post-stimulation, GA 10, MBP 10, ConA 2.5 μg/mL, reference 18S rRNA), 0.5 fold change vs control. Besides, the “mIL-2 mRNA Level” value in assay [2] (Group 1B (GA + CFA), 6 hours post-stimulation, GA 10, MBP 10, ConA 2.5 μg/mL, reference 18S rRNA) was 0.3 fold change vs control; in assay [2] (Group 2B (Mannitol + CFA), 4 hours post-stimulation, GA 10, MBP 10, ConA 2.5 μg/mL, reference 18S rRNA), 0.4 fold change vs control; in assay [2] (Group 2B (Mannitol + CFA), 6 hours post-stimulation, GA 10, MBP 10, ConA 2.5 μg/mL, reference 18S rRNA), 0.5 fold change vs control.
